The supplement of paper PMC10724198
± gives the standard deviation of the averaged measurements.

Tested on: Saccharomyces cerevisiae
Assay: protein stability index of tFT-peptide fusion (C-terminal peptide) (PSI (0-1 scale)); higher = more stable (slower turnover)
Details: genetic background: wild type; temperature: 30 C
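Note: PSI is a weighted mean of sequencing reads over stability bins, variants kept only with over 10 reads, mCherry proximal and sfGFP distal, peptide attached via GGGS linker.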

In order of rising protein stability index:
1. FLLCLWIFFFGS  0.482 ± 0.028
2. AHLLLRPPLVAH  0.486 ± 0.029
3. VGVLCWLFLGVG  0.501 ± 0.008
4. RSALFLLTLVPI  0.565 ± 0.018
5. LPPALAPLPPPL  0.572 ± 0.021
6. RKFLCKSPIECS  0.574 ± 0.015
7. PGSCAYHIFRFR  0.583 ± 0.0062
8. LRVQFFFLAGCT  0.584 ± 0.006
9. FFAGELGVYCLV  0.596 ± 0.033
10. GVGVGDCVRCMV  0.619 ± 0.008
11. LYIPQKRGLSLH  0.62 ± 0.021
12. FWGRYIGRDRGT  0.62 ± 0.12
13. ISPGWLSRLWVR  0.629 ± 0.0083
14. SARRAALGVWVV  0.636 ± 0.026
15. YTKFASLKRHTQ  0.636 ± 0.034
16. PPSLPPRPRPPS  0.6411 ± 0.0049
17. SDKDIYQRLSYE  0.643 ± 0.036
18. PSPLPLLPPPRP  0.645 ± 0.037
19. GRWEGLRGLGVG  0.647 ± 0.012
20. PRYAEFVGRFEV  0.6508 ± 0.0064
21. ISYLSILTSCPW  0.65423 ± 0.00026
22. QGQAAHEHFHGR  0.654 ± 0.042
23. VPAYLVAARQYY  0.655 ± 0.012
24. MESGGVGRVVWR  0.655 ± 0.079
25. PPIPYIVPPSYT  0.657 ± 0.015
26. GGRGAGGGVELR  0.661 ± 0.075
27. VSVGGVWGQCVA  0.6618 ± 0.0047
28. VHRPFDGFSRAG  0.662 ± 0.011
29. PPFTLRPQVPTH  0.664 ± 0.0097
30. SELRFALCPAFL  0.666 ± 0.019
31. IWVGNEENEEII  0.669 ± 0.082
32. RRIIISSSYIYE  0.672 ± 0.012
33. FESGINWLLSDK  0.672 ± 0.06
34. WTGGEEGTAVQA  0.676 ± 0.025
35. PPITKKITRNTA  0.676 ± 0.014
36. ESRVTNKQSYQA  0.678 ± 0.03
37. RRSIAVEFSGTG  0.679 ± 0.041
38. TRSDILGAERWG  0.6794 ± 0.0033
39. LFTSLYWAFRSR  0.679 ± 0.016
40. DSSFPKSVSKQA  0.679 ± 0.024
41. LSPLGLGPLLPP  0.68 ± 0.048
42. RAARVSVVAYPF  0.682 ± 0.0094
43. AFRGRGAFKYCL  0.683 ± 0.1
44. VGGRVCQSEGVE  0.685 ± 0.0058
45. HPAGPSGRLLPT  0.685 ± 0.0095
46. ENLFLRRVWFCR  0.686 ± 0.022
47. VRLWLTLQQVDF  0.686 ± 0.085
48. SPSSPPSKCLSL  0.688 ± 0.039
49. CDRVIGSRGVTY  0.688 ± 0.0071
50. YCRGGGLAKREV  0.689 ± 0.021
51. ARAEDLLVFLPL  0.691 ± 0.039
52. PPPLSLLPAPPA  0.6953 ± 0.0021
53. EFLVSVRPFASP  0.696 ± 0.032
54. KGYEGGRRCELE  0.696 ± 0.039
55. RARAIGVGSGRG  0.698 ± 0.023
56. AGGPRVRGAAGR  0.698 ± 0.055
57. GGWWGWAGENTR  0.7 ± 0.048
58. DHVSTVEQKLFF  0.701 ± 0.031
59. VVAGCLWGEYAT  0.702 ± 0.17
60. RVRCPVVSGGRG  0.707 ± 0.099
61. PAGPPHPCPHPS  0.708 ± 0.05
62. GVRSGAGGQGVG  0.708 ± 0.069
63. PRSLPLDHPAPC  0.709 ± 0.085
64. PGFFRLSLFPFA  0.713 ± 0.0083
65. SPPPPPLPPSPR  0.713 ± 0.0078
66. VASLGFVGFCRF  0.713 ± 0.06
67. LPPPLSSPSSLR  0.7153 ± 0.0071
68. ALRAGGRPYSVS  0.716 ± 0.014
69. TLLPPACFPTPP  0.717 ± 0.017
70. PPRSPRPPPSRP  0.72 ± 0.1
71. PINALLHNKRES  0.721 ± 0.082
72. VIDFAELGTVAH  0.7301 ± 0.005
73. WMDNTKKGNKDS  0.736 ± 0.06
74. QYGARNHPPTTK  0.742 ± 0.063
75. GGWGCWQAGGLT  0.7444 ± 0.0016
76. ILIYFWFSFFFF  0.753 ± 0.013
77. GVVWMSCGGWWG  0.7545 ± 0.0042
78. NKKKKKRNKQKN  0.762 ± 0.011
79. YDYASTCGSCIY  0.774 ± 0.024
80. KEVNEDIDKAKS  0.782 ± 0.18
81. SRWDSDRGGERR  0.805 ± 0.027
